The values below come from US20130244255A1 (published 2013).

What is called Kd is the constant that tells how readily two partners part at equilibrium. Usually koff stands for a measure of how fast the partners let go of each other. Usually kon stands for the second-order rate constant of association.

Where “and” joins values, the source holds several entries; their conditions need not be identical. Equal values may be shown once.

Experiment [1] deals with T1, Recombinant human GPNMB extra-cellular domain (ECD) with a C-terminus V5-HIS tag (human, UniProt Q14956 23-492).
T1 construct: Expressed in HEK293; also called GPNMB-V5His; GPNMB-soluble
T1 sequence: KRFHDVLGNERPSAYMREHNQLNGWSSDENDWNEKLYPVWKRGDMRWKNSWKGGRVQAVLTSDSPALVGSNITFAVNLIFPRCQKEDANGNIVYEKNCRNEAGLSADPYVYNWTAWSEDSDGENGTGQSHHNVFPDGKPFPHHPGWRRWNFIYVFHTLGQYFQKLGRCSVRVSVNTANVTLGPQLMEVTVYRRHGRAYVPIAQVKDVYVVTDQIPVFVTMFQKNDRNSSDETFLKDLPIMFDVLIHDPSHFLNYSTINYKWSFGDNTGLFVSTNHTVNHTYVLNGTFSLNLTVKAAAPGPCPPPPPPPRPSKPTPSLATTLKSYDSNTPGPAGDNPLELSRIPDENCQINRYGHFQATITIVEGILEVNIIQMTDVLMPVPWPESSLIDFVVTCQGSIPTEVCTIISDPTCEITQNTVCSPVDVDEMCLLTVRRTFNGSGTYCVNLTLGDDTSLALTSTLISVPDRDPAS
The experiment is described as follows: Biacore, mAb captured on protein A. In general terms: SPR reads the build-up and loss of mass on a sensor chip optically.
Protocol: Certain Hybridoma cell supernatants (29) were analyzed for binding to GPNMB by BiaCore® 2000 biosensor equipped with a research-grade CM5 sensor chip. A 1:25 dilution of cell supernatant was passed over a protein A surface for 5 min followed by washing the surface for 10 mins. […] GPNMB binding data for each mAb was normalized for the amount of mAb captured on each surface. Normalized, drift corrected responses were also measured. The sensorgrams were fit to a simple 1:1 kinetic model.

Experiment [2] deals with T2, GPNMB (CG56972) as expressed by human cell lines (human, UniProt Q14956 23-492).
T2 sequence: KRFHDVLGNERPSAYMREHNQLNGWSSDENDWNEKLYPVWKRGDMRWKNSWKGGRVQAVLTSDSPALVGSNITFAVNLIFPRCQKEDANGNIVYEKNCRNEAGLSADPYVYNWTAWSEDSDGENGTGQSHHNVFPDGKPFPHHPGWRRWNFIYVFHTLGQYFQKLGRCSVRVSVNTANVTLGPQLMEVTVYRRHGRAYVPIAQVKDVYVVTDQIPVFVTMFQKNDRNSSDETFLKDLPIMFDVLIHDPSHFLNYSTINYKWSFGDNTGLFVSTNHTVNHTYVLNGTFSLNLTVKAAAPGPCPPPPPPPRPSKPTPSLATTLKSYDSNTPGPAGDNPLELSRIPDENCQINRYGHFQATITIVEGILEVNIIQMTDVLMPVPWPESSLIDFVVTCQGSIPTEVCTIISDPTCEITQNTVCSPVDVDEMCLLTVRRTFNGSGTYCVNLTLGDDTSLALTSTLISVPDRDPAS
The experiment is described as follows: cell-based or functional assay.

In experiment [3] the target is T2, GPNMB (CG56972) as expressed by human …. Put plainly: cell-based or functional assay. The source holds these as a separate data set.
The target is the same in experiment [4]. Put plainly: cell-based or functional assay. This is another data set of the same source.
Experiment [5] shares this target. The experiment is described as follows: cell-based or functional assay. This is another data set of the same source.
For experiment [6] the target is unchanged. Put plainly: cell-based or functional assay. This is another data set of the same source.
Experiment [7] has the same target. The experiment is described as follows: FACS on UACC-62 cells, antibody 1 ug/mL.
Protocol: The specificity of anti-GPNMB antibodies to cell membrane-bound GPNMB protein expressed by melanoma cancer cell line, UACC-62 was analyzed by FACS analysis. […] Cells were washed twice with PBS (Ca and Mg free), incubated with Versene at 37° C. until cells detached, counted and aliquoted at 1 million cells per assay tube. Cells were then washed twice and resuspended in ice-cold FACS buffer (0.01 M HEPES, 0.15M NaCl, 0.1% NaN₃ and 4% FBS). Primary antibody at 1 μg/mL was added to the cells. Cells were incubated on ice for 30 min, washed 2-3 times and resuspended in 1 mL of ice-cold FACS buffer. R-PE-conjugated goat anti-human antibody (Jackson ImmunoResearch Laboratory) at 1:100 dilution was added and cells were incubated on ice for 30 min. After washing 3 times with 1 mL of ice-cold FACS buffer, cells were fixed with 0.5-1 mL of 1% formaldehyde in PBS and analyzed by flow cytometry.
The target is the same in experiment [8]. The experiment is described as follows: cell-based or functional assay. This is another data set of the same source.
Experiment [9] addresses T1, Recombinant human GPNMB extra-cellular …. The experiment is described as follows: ELISA on plates coated with recombinant GPNMB (His and V5 tagged), detection with anti-FLAG M2-HRP. A general note: In an ELISA, binding on a coated surface is turned into a signal by an enzyme label.
Protocol: Plates were then blocked and washed. […] Plates were incubated for 1 h and washed. HRP-conjugated anti-FLAG M2 mAb (Sigma, St. Louis, Mo.) was added into the wells for 1 h, washed and the reaction developed with the TMB substrate reagent as described by the manufacturer (Pharmingen, San Jose, Calif.).
Experiment [10] concerns the target T3, CD3 on purified human T cells (human, UniProt P07766 23-207; P04234 22-171; P09693 23-182).
T3 construct: also called human CD3 molecules
The experiment is described as follows: flow cytometry on purified human T cells, mouse anti-FLAG mAb and PE-conjugated goat anti-mouse Ig F(ab')2. For orientation: In flow cytometry, cells or beads pass a laser one at a time.

T3 sequence (P07766 23-207 limits assumed, chain 1 of 3): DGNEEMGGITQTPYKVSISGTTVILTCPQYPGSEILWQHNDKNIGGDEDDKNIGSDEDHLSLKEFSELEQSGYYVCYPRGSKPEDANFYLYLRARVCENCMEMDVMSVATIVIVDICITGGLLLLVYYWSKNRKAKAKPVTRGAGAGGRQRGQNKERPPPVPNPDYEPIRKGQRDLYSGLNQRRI
T3 sequence (P04234 22-171 limits assumed, chain 2 of 3): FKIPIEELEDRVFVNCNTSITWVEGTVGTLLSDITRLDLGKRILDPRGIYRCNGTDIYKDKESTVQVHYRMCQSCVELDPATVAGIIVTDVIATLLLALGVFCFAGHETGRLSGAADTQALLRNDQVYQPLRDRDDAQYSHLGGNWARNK
T3 sequence (P09693 23-182 limits assumed, chain 3 of 3): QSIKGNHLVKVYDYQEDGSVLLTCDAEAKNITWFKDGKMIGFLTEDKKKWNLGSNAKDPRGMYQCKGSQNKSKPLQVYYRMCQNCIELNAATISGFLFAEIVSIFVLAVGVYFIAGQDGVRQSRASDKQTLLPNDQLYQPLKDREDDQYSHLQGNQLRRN

B1: Mab1.10.2 (antibody, IgG2, V domains shown)
VH: QVQLQESGPGLVKPSETLSLTCTVSGDSISNYYWSWIRQPPGKGLEWIGYFYYSGSTNYNPSLKSRVTISVDTSKNQFSLKLSSVTAADTAVYYCARDRGWADYWGQGTLVTVSS
VL: EIVLTQSPGTLSLSPGERATLSCRTSQSISSSYLAWYQQKPGQVPRLLIYGASSRATGIPDRFSGSGSGTDFTLTISRLEPEDFAVYYCQQYGSSITFGQGTRLEIKR
notes: Fully human hybridoma antibody (XenoMouse XMG2, IgG2 kappa)
For the molecule B1, in experiment [1], the dissociation constant (Kd) was 118 nM, the koff amounted to 0.000466 s⁻¹ and the association rate constant (kon) amounted to 3960 M⁻¹ s⁻¹.

B2: CR011-vcMMAE (antibody, human IgG2)
heavy: QVQLQESGPGLVKPSQTLSLTCTVSGGSISSFNYYWSWIRHHPGKGLEWIGYIYYSGSTYSNPSLKSRVTISVDTSKNQFSLTLSSVTAADTAVYYCARGYNWNYFDYWGQGTLVTVSSASTKGPSVFPLAPCSRSTSESTAALGCLVKDYFPEPVTVSWNSGALTSGVHTFPAVLQSSGLYSLSSVVTVPSSNFGTQTYTCNVDHKPSNTKVDKTVERKCCVECPPCPAPPVAGPSVFLFPPKPKDTLMISRTPEVTCVVVDVSHEDPEVQFNWYVDGVEVHNAKTKPREEQFNSTFRVVSVLTVVHQDWLNGKEYKCKVSNKGLPAPIEKTISKTKGQPREPQVYTLPPSREEMTKNQVSLTCLVKGFYPSDIAVEWESNGQPENNYKTTPPMLDSDGSFFLYSKLTVDKSRWQQGNVFSCSVMHEALHNHYTQKSLSLSPGK
VL: not shown
modifications: vcMMAE (maleimidocaproyl-valine-citrulline-monomethylauristatin E) on cysteine thiols of reduced disulfides, about 4 per antibody; positions not given
Take B2: in [2], the “Clonogenic Assay with 1.15.1-AE IC50, SR” value is 296 ng/mL and 2000 pM; the “Clonogenic Assay with 1.15.1-AE IC50, THP-1” value was 207 ng/mL and 1400 pM; the “Clonogenic Assay with 1.15.1-AE IC50, U937” value is 340 ng/mL and 2400 pM. In experiment [3], the “IC50 of colony formation (clonogenic assay, % of control, 96 h) on HEK293 cells transfected with GPNMB (circles); Vector + CR011-vcMMAE (diamonds) is printed as >1000” value amounted to 0.3 µg/mL. Besides, in experiment [4], the “CR011-AE IC50, clonogenic assay, SF-268 (weakly expressing)” value is over 1.5 µg/mL; the “CR011-AE IC50, clonogenic assay, SF-539” value was 1.03 µg/mL; the “CR011-AE IC50, clonogenic assay, SK-MEL-2” value was 0.303 µg/mL; the “CR011-AE IC50, clonogenic assay, SNB-78” value was 0.449 µg/mL. In experiment [4], the “CR011-AE IC50, clonogenic assay, U-118-MG” value was determined as 1.25 µg/mL and the “CR011-AE IC50, clonogenic assay, XF-498” value is 0.216 µg/mL. In experiment [5], the “Clonogenic Assay with 1.15.1-AE IC50, G361” value was 1050 ng/mL and 6500 pM; the “Clonogenic Assay with 1.15.1-AE IC50, RPMI-7951” value was 972 ng/mL and 6000 pM; the “Clonogenic Assay with 1.15.1-AE IC50, SK-Mel 2” value is 111 ng/mL and 750 pM; the “Clonogenic Assay with 1.15.1-AE IC50, SK-Mel 5” value is 237 ng/mL and 1600 pM. In experiment [5], the “Clonogenic Assay with 1.15.1-AE IC50, UACC-62” value is 697 ng/mL and 4300 pM; the “Clonogenic Assay with 1.15.1-AE IC50, UACC-257” value is 825 ng/mL and 5500 pM; the “Clonogenic Assay with 1.15.1-AE IC50, WM-266-4” value was 345 ng/mL and 2300 pM. In [6], the “IC50 of colony formation (clonogenic assay, % of control) on SK-Mel-2 cells transfected with control siRNA (circles)” value was found to be 0.22 µg/mL and the “IC50 of colony formation (clonogenic assay, % of control) on mock-transfected SK-Mel-2 cells (diamonds)” value is 0.33 µg/mL.

B3: Mab2.10.2 (antibody, IgG2, V domains shown)
VH: QLVESGGGVVQPGRSLRLSCAASGFAFSSYGMHWVRQAPGKGLEWVAVISYDGNNKYYADSVKGRFTISRDNSKNTLYLQMNSLRAEDTAVYYCARDLVVRGIRGYYYYFGMDVWGQGTTVTVSS
VL: not shown
notes: Fully human hybridoma antibody (XenoMouse XMG2, IgG2 kappa); also called CR011.2.10.2
Turning to B3, the “Geo Mean Ratio (relative to pK16)” value in [7] was determined as 2.6 ratio. In experiment [8], the “killing of UACC-62 cells with saporin-conjugated secondary antibody (colony count)” value is over 70%.

B4: Mab1.2.2 (antibody, IgG2, V domains shown)
VH: ITLKESGPTLVKPTQTLTLTCTFSGFSLSAGGVGVGWIRQPPGKALEWLALIYWNDDKRYSPSLRSRLTITKDTSKNQVVLTITNMDPVDTATYYCAHSHYDYDWGSYFDYWGQGTLVTVSS
VL: DIVMTQTPLSLPVTPGEPASISCRSSQSLLDSDDGNTYLDWYLQKPGQSPQLLIYTLSYRASGVPDRFSGSGSGTDFTLNISRVEAEDVGVYYCMQRIEFPITFGQGTRLEIKR
notes: Fully human hybridoma antibody (XenoMouse XMG2, IgG2 kappa); also called CR011.1.2.2
As for B4, in experiment [7], the “Geo Mean Ratio (relative to pK16)” value is 1.24 ratio. For the same molecule, in experiment [1], the dissociation constant (Kd) is 96 nM, the koff came to 0.00089 s⁻¹ and the kon worked out at 9260 M⁻¹ s⁻¹.

B5: CR011 single chain antibody (CR011 scFv), VL-L4-VH, Flag tag (scFv)
scFv: EIVMTQSPATLSVSPGERATLSCRASQSVDNNLVWYQQKPGQAPRLLIYGASTRATGIPARFSGSGSGTEFTLTISSLQSEDFAVYYCQQYNNWPPWTFGQGTKVEIKLSADDAKKDAAKKDDAKKDDAKKDLQVQLQESGPGLVKPSQTLSLTCTVSGGSISSFNYYWSWIRHHPGKGLEWIGYIYYSGSTYSNPSLKSRVTISVDTSKNQFSLTLSSVTAADTAVYYCARGYNWNYFDYWGQGTLVTVSSASDYKDDDDK
notes: also called CR011 scFv monomer; mono-specific anti-GPNMB scFv
On to B5, for which the binding result in experiment [9] is recorded as “binds”; in experiment [10], “no binding (tested: 5 ug/sample/100 ul)”.

B6: Mab2.22.1 (antibody, IgG2, V domains shown)
VH: QVQLEQSGPGLVKPSQNLSLTCTVSGGSISSGGYFWSWIRQHPGKGLEWIGYIYYSGNTYYNPSLKSRVTISVDTSKNQFSLKLSSVTAADTAVYYCARDYYYDTSGFSYRYDWYYGMDVWGQGTTVTVSS
VL: DIQLTQSPSSLSASVGDRVTITCRASQGIRNDLGWYQQKPGKAPKRLIYAASSLQNGVPSRFSGSGSGTEFTLTISSLQPEDFATYYCLQHNTYPAFGQGTKVEIKR
notes: Fully human hybridoma antibody (XenoMouse XMG2, IgG2 kappa); also called CR011.2.22.1
As to B6, in [7], the “Geo Mean Ratio (relative to pK16)” value worked out at 4.46 ratio. The “killing of UACC-62 cells with saporin-conjugated secondary antibody (colony count)” value in experiment [8] was over 70%.

B7: Mab1.7.1 (antibody, IgG2, V domains shown)
VH: QVQLQESGPGLVKPSQTLSLTCTVSGGSISSANYYWTWIRQHPGKGLEWIGYIYYSGSTYCNPSLKSRVIISVDTSKNQFSLKLSSVTAADTAVYYCARGYNWNYFDYWGQGTLVTVSS
VL: DIVMTQSPATLSVSPGERATLSCRASQSVSSNLAWYQERPGQAPRLLIYGASTRATGIPARFSGSGSGTEFTLTISSLQSEDFAVYYCQQYNKWPPWTFGQGTKVEIER
notes: as for B1
As to B7, in experiment [1], the Kd was 122 nM, the dissociation rate constant (koff) stood at 0.00144 s⁻¹ and the on-rate constant (kon) was 11800 M⁻¹ s⁻¹.
